# How the values were obtained:
# [1] = target: HLA-B*44:03; assay: IEDB peptide-MHC binding, purified MHC/competitive/radioactivity; filed as Kd, often an IC50 or EC50 that approximates it; ≥ and ≤ were set here for values at or beyond the usual limits of such assays
# [2] = target: HLA-B*44:02; assay: as above
# [3] = target: HLA-A*30:02; assay: as above
# [4] = target: HLA-A*01:01; assay: as above
# [5] = target: HLA-B*15:01; assay: as above
# [6] = target: HLA-A*24:02; assay: as above; details: source organism: SARS coronavirus Tor2
# [7] = target: HLA-A*29:02; assay: as above; details: source organism: SARS coronavirus Tor2
# [8] = target: HLA-A*23:01; assay: as above; details: source organism: SARS coronavirus Tor2
# [9] = target: HLA-A*26:01; assay: as above; details: source organism: SARS coronavirus Tor2
# [10] = target: HLA-A*31:01; assay: IEDB peptide-MHC binding, purified MHC/direct/fluorescence; filed as Kd, often an IC50 or EC50 that approximates it; ≥ and ≤ were set here for values at or beyond the usual limits of such assays; details: source organism: SARS-CoV1
# [11] = target: HLA-A*33:01; assay: IEDB peptide-MHC binding, purified MHC/competitive/radioactivity; filed as Kd, often an IC50 or EC50 that approximates it; ≥ and ≤ were set here for values at or beyond the usual limits of such assays; details: source organism: SARS coronavirus Tor2
# [12] = target: HLA-A*68:01; assay: as above; details: source organism: SARS coronavirus Tor2
# [13] = target: HLA-A*30:01; assay: as above; details: source organism: Dengue virus 3 Martinique/1243/1999
# [14] = target: HLA-B*40:01; assay: as above
# [15] = target: HLA-B*53:01; assay: as above; details: source organism: Dengue virus 4 Philippines/H241/1956
# [16] = source organism: Dengue virus 2 Jamaica/1409/1983
# [17] = source organism: Dengue virus 1 Singapore/S275/1990
# [18] = source organism: SARS coronavirus Tor2
# [19] = source organism: Dengue virus 3 Martinique/1243/1999
# [20] = source organism: Dengue virus 4 Philippines/H241/1956
Sequence,Kd [6] [nM],"Kd [3, 18] [nM]",Kd [7] [nM],Kd [8] [nM],"Kd [4, 18] [nM]",Kd [9] [nM],also measured
AECPNTNRAW,–,–,–,–,–,–,"Kd [1, 16]: 53 nM; Kd [2, 16]: 35.6 nM"
ALGKSEFQIY,–,–,–,–,–,–,"Kd [3, 16]: ≥ 69700 nM; Kd [4, 16]: 1540 nM"
AQIMEVTARW,–,–,–,–,–,–,"Kd [1, 17]: 104 nM; Kd [2, 17]: 156 nM"
AQKRAAAGIM,–,–,–,–,–,–,"Kd [5, 16]: 68.7 nM"
ASEFSSLPSY,≥ 70300,47.4,102,≥ 70000,14.1,11900,–
AVLQSGFRK,–,–,–,–,–,–,Kd [10]: 186 nM; Kd [11]: ≥ 77700 nM; Kd [12]: 393 nM
AWEILKFLI,2960,≥ 25300,4100,3630,≥ 78100,≥ 57000,–
AYNVVNKGHF,316,11200,978,476,≥ 55200,≥ 37500,–
EEFLDYMPSM,–,–,–,–,–,–,"Kd [13]: 2290 nM; Kd [1, 19]: 70.8 nM; Kd [14, 19]: 142 nM"
EERDDTLTIL,–,–,–,–,–,–,Kd ([14]; source organism: Dengue virus 1 Brazil/97-11/1997): 22 nM
EPSKGWKNW,–,–,–,–,–,–,Kd [15]: 608 nM
ESQMLIPKAY,–,–,–,–,–,–,"Kd [3, 20]: 8.93 nM; Kd [4, 20]: ≥ 39300 nM"
ESVKTQFNY,≥ 77600,505,31.2,≥ 77800,2610,902,–
FETTMRGAKR,–,–,–,–,–,–,"Kd [14, 16]: 3580 nM"
FIDTIKSLDY,≥ 70300,4390,506,≥ 70000,458,≥ 24900,–
FLHNYILYA,–,–,–,–,–,–,Kd ([5]; source organism: Vaccinia virus WR): 1560 nM
FWITAIYVF,853,22.8,26.9,163,629,547,–

# Reference: the Immune Epitope Database (IEDB)
